Source: article PMC10862009, “Generation of antibodies to an extracellular region of the transporters Glut1/Glut4 by immunization with a designed antigen” (The Journal of Biological Chemistry, 2024)
Values belong to the binder of their own block, whether it stands above or below them.

Legend:
[1] = molecular target: T1, Anti-Glut4 VHH (alpaca); assay: ITC; 10 uM VHH in the cell; 100 uM fusion protein (or scaffold protein Adhiron-WT) titrated, 20 injections of 2 ul at intervals of 120 s; PBS pH 7.4, 25 °C; n = 3, mean ± s.e.m.; settings: both partners purified
T1 construct: alpaca VHH; selected by phage display from an alpaca immunized with Adhiron-Glut4; also called the VHH; anti-Glut4 VHH antibody; source: E. coli BL21(DE3), purified (Ni-NTA, SEC)
T1 sequence (VHH, as listed by the source): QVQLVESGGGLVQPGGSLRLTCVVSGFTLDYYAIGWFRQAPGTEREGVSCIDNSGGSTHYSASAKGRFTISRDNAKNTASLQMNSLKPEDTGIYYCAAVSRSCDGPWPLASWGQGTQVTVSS

[2] = molecular target: T2, full-length Glut1 as a recombinant protein (Homo sapiens, UniProt P11166); assay: SPR; Biacore 8K; His-tagged Glut1 captured by anti-His antibodies on a CM5 chip; VHH injected at 123 nM-10 μM, single-cycle kinetics; 25 mM Mes-NaOH pH 6.0, 150 mM NaCl, 5% glycerol, 0.05% n-dodecyl-β-D-maltoside, 25 °C; settings: both partners purified
T2 construct: glucose transporter 1 (Glut1), human, full length; also called glucose transporter 1; full-length Glut1 in micelles; source: High Five insect cells (baculovirus), purified (solubilised with n-dodecyl-β-D-maltopyranoside, Ni-NTA, SEC); not shown: His10, C-terminal, kept

[3] = molecular target: T3, Fc-VHH antibody of VHH5 (alpaca); assay: flow cytometry on cells; Expi293 cells transfected with Glut1 against empty vector; 1 μM Fc-VHH with Alexa Fluor 488 anti-human IgG, on ice 60 min; settings: one partner purified
T3 construct: as the VHH of m7; form used for flow cytometry; source: ExpiCHO, transfected, purified from the supernatant (rProtein A Sepharose, SEC); not shown: Fc (Fc region of trastuzumab), C-terminal, kept

[4] = molecular target: T4, Fc-VHH antibody of VHH4 (alpaca); assay: as above; settings: one partner purified
T4 construct: as the VHH of m6; form used for flow cytometry; source: ExpiCHO, transfected, purified from the supernatant (rProtein A Sepharose, SEC); not shown: Fc (Fc region of trastuzumab), C-terminal, kept

[5] = molecular target: T3, Fc-VHH antibody of VHH5; assay: flow cytometry on cells; HCT116 cells with endogenous Glut1; 1 μM Fc-VHH with Alexa Fluor 488 anti-human IgG, on ice 60 min; settings: one partner purified
[6] = molecular target: T4, Fc-VHH antibody of VHH4; assay: as above; settings: one partner purified

B1: Adhiron-Glut4 (other)
chain: ENSLEIEELARFAVDEHNKKENALLEFVRVVKAKEQGGGGSAPQKVIEQSYNETWLGRQGPEGPSSIPPGTLTTLWALSVGGGGSTMYYLTLEAKDGGKKKLYEAKVWVKPWENFKELQEFKPV
modifications: Limits of the Glut4 graft are not printed: 47-85 is the homologue of Glut1 35-69 (two extracellular helices). Graft site is assumed to be as in Adhiron-Glut1: loop 47VVAG50 (entity 37-40, offset 10) …
Kd [1]: 3.67 nM
stoichiometry N [1]: 1.02

B2: VHH4 with a FLAG tag (VHH)
VHH: EVQLVESGGGLVQPGGSLRLSCAASGFTLDRYAIGWFRQAPGKEREGISCISSGSGSRVYADSVKGRFTVSRDNVENTVSLEMNSLKPEDTAVYYCAAEADYYCSGYPIYRKFGSWGQGTQVTVSS
notes: as the VHH of m6; Form prepared for SPR; source: E. coli BL21(DE3), purified (DDDDK-tagged Protein Purification Gel, SEC)
binding result [2]: binds

The remaining lines, values ahead:

binding result [3]: binds
binding result [4]: binds
B3: Glut1 overexpressed on Expi293 cells (natural protein, human, UniProt P11166 1-492, looked up)
chain: MEPSSKKLTGRLMLAVGGAVLGSLQFGYNTGVINAPQKVIEEFYNQTWVHRYGESILPTTLTTLWSLSVAIFSVGGMIGSFSVGLFVNRFGRRNSMLMMNLLAFVSAVLMGFSKLGKSFEMLILGRFIIGVYCGLTTGFVPMYVGEVSPTALRGALGTLHQLGIVVGILIAQVFGLDSIMGNKDLWPLLLSIIFIPALLQCIVLPFCPESPRFLLINRNEENRAKSVLKKLRGTADVTHDLQEMKEESRQMMREKKVTILELFRSPAYRQPILIAVVLQLSQQLSGINAVFYYSTSIFEKAGVQQPVYATIGSGIVNTAFTVVSLFVVERAGRRTLHLIGLAGMAGCAILMTIALALLEQLPWMSYLSIVAIFGFVAFFEVGPGPIPWFIVAELFSQGPRPAAIAVAGFSNWTSNFIVGMCFQYVEQLCGPYVFIIFTVLLVLFFIFTYFKVPETKGRTFDEIASGFRQGGASQSDKTPEELFHPLGADSQV
notes: glucose transporter 1 (Glut1), human, on the surface of transfected Expi293 cells; also called Glut1 on the cell membrane; overexpressed Glut1; source: Expi293, transfected (pcDNA 3.4), on cells

binding result [5]: binds
binding result [6]: binds
B4: endogenous Glut1 on HCT116 cells (natural protein, human (endogenous in HCT116), UniProt P11166 1-492, looked up)
chain: B3 chain
notes: glucose transporter 1 (Glut1), endogenous on the surface of HCT116 colon cancer cells; source: endogenous, on HCT116 cells

binding result [2]: binds
B5: VHH5 with a FLAG tag (VHH)
VHH: ELQLVESGGGLVQPGGSLRLSCAVSGVAFEDYAIGWFRQAPGKEREGVSCISSGSGSRIYTDSVKGRFTVSRDNPKNTVDLQMDSLKPEDTAVYYCAAERDYYCSGYPTYRAFSSWGEGTQVTVSS
notes: as the VHH of m7; Form prepared for SPR; source: E. coli BL21(DE3), purified (DDDDK-tagged Protein Purification Gel, SEC)
